Biological target: the molecule itself
Experiment: SEC-MALS; Superdex 200 HR 10/30 coupled to MALS and refractive index detectors; 20 mM Tris-HCl pH 8.0, 150 mM NaCl; measured mass 103.72 kDa against 52.79 kDa theoretical monomer

B1: ω-transaminase from Vibrio fluvialis JS17 (Vfat), apo (cofactor-free) form (enzyme, UniProt F2XBU9 1-453, looked up)
chain: MNKPQSWEARAETYSLYGFTDMPSLHQRGTVVVTHGEGPYIVDVNGRRYLDANSGLWNMVAGFDHKGLIDAAKAQYERFPGYHAFFGRMSDQTVMLSEKLVEVSPFDSGRVFYTNSGSEANDTMVKMLWFLHAAEGKPQKRKILTRWNAYHGVTAVSASMTGKPYNSVFGLPLPGFVHLTCPHYWRYGEEGETEEQFVARLARELEETIQREGADTIAGFFAEPVMGAGGVIPPAKGYFQAILPILRKYDIPVISDEVICGFGRTGNTWGCVTYDFTPDAIISSKNLTAGFFPMGAVILGPELSKRLETAIEAIEEFPHGFTASGHPVGCAIALKAIDVVMNEGLAENVRRLAPRFEERLKHIAERPNIGEYRGIGFMWALEAVKDKASKTPFDGNLSVSERIANTCTDLGLICRPLGQSVVLCPPFILTEAQMDEMFDKLEKALDKVFAEVA
notes: ω-transaminase (amine:pyruvate transaminase) from Vibrio fluvialis JS17; 'the coding region of Vfat' cloned into pET24ma; theoretical mass with the His-tag 52.79 kDa; Homodimer by MALS and in the crystal; also called apo Vfat; amine:pyruvate transaminase; source: E. coli BL21 (DE3), purified (Ni-NTA, Superdex 200 gel filtration); not shown: His-tag, C-terminal, kept
- stoichiometry N: 2

Source: article PMC6065307, “Structural dynamics of the transaminase active site revealed by the crystal structure of a co-factor free omega-transaminase from Vibrio fluvialis JS17” (Scientific Reports, 2018)
